Measurements: PMC9336126 (Communications Biology, 2022)

Legend:
[1] = target: T1, SARS-CoV-2 spike receptor-binding domain (RBD), residues 333-529 (SARS-CoV-2 ancestral (Wuhan-Hu-1, …, UniProt P0DTC2)); test: crystal structure; settings: both partners purified
T1 construct: also called SARS-CoV-2 RBD; wildtype RBD

[2] = target: T2, SARS-CoV-2 WT RBD (Acro Biosystems, Cat #SPD-C52H3) (SARS-CoV-2 ancestral wildtype, UniProt P0DTC2); test: ELISA; settings: both partners purified
T2 construct: also called wildtype RBD; ancestral wildtype SARS-CoV-2 RBD; source: bought: Acro Biosystems

Binder | binding result [1] | binding result [2]
ADI-62113 Fab (Fab, V domains shown) VH: QVQLQQSGAEVKKPGASVKLSCKASGYTFSVFPIHWVRQAPGQRLEWMGWHNAGDGDTKYSQKFQGRVTIISDTSASTAYMELSSLKSEDTAVYYCARAARPYYDRRGYFFRADYFQHWGQGTLVTVSS VL: DIQVTQSPSSLSASVGDRVTITCQASQDIKNSLNWYQQKPGKAPKLLISDASNLETGVPSRFSGNGSGTDFTFTISSLQPEDIATYYCQQYDNLITFGPGTKVEIK | binds | –
ADI-62113 IgG (antibody, V domains shown) VH: QVQLQQSGAEVKKPGASVKLSCKASGYTFSVFPIHWVRQAPGQRLEWMGWHNAGDGDTKYSQKFQGRVTIISDTSASTAYMELSSLKSEDTAVYYCARAARPYYDRRGYFFRADYFQHWGQGTLVTVSS VL: DIQVTQSPSSLSASVGDRVTITCQASQDIKNSLNWYQQKPGKAPKLLISDASNLETGVPSRFSGNGSGTDFTFTISSLQPEDIATYYCQQYDNLITFGPGTKVEIK | – | binds
